Assay: label from the status in PepcDB records

| Sequence | protein production |
| --- | --- |
| MDELKLYTYIAVFSTFALYFAIAWWARAGSTSDFYVAGGGITPMQNGMAIGADWMSAASFISMAGLIAFLGYGGSVFLMGWTGGYVLLAMLLAPYMRKHGKFTVPEFIFDRYYSKTARIVAVACLIIASLTYIIGQMKGVGVAFSRFLEVDYGLGLGIGMFVVWVYAVLGGMKGITYTQIAQYVVMIFAYTIPAIFISLQLTGNPIPQLGLGSTLADGSGVYLLDKLDMVVTDLGFKEYTTSNLGGTLNMFAYTISLMIGTAGLPHVIMRFFTVPSVQAARQSAGYALVFIGLLYTVAPAVGAMARLNLMNTIEPTAGQNLVYDERPQWFKDWEKTGLLKFEDKNGDGKIQYTSNATDQTVTKINTMTGKEIVVVPNEMVKVDRDIMVLANPAIANLPNWVIALVAAGGLAAALSTAAGLLLAISSSISHDLMKGVLTPDLSEKNELLAGRVVMTIAILVSGYLGLHPPGFAAGTVALAFGLAASSIFPALMMGIFSKKMSGTAAISGMVAGIGVTMMYVFQHKGIMFIPGTSFLGDMGKDWFFGISPNAFGAVGAIVNFGVAFIVLQFTGPCPANIVAMVENMRAPGDCAAAHDH | failed |
| MRVEALGKVAPLPQAQTPVSLNEASLEELMALPGIGPVLARRIVEGRPYARVEDLLKVKGIGPATLERLRPYLRP | not failed |
| MASHVDLLTELQLLEKVPTLERLRAAQKRRAQQLKKWAQYEQDLLHRKRKHERKRSTGGRRKKVSFEASVALLEASLRNDAEEVRYFLKNKVSPDLCNEDGLTALHQCCIDNFEEIVKLLLSHGANVNAKDNELWTPLHAAATCGHINLVKILVQYGADLLAVNSDGNMPYDLCEDEPTLDVIETCMAYQGITQEKINEMRAAPEQKMISDIHCMIAAGQDLDWIDGQGATLLHIAGANGYLRAAELLLDHGVRVDVKDWDGWEPLHAAAFWGQMPMAELLVSHGASLSARTSMDEMPIDLCEEEEFKVLLLELKHKHDVIMKSQLRHKSSLSRRTSSAGSRGKVVRRASLSDRTNLYRKEYEGEAILWQQRSAAEEQRTSTYNGDIRETRTDQENKDPNPRLEKPVLLSEFSTKISRGELDGPVENGLRAPVSTYQYALANGDIWKMHEIPDYSMAYGNPGMADVPPPWSGFKEQSPQTLLELKRQRAAAKLLSHPFLSTHLGSSVARSGEGSSEGKAPLIGGRTSPYSSNGTSVYYTVTSGDPPLLKFKAPMEEMEEKVHGCCRIS | failed |
| MGPVPEFSVIIPARNEAAYLPGTLRALERQTLAPAEVIVVDNASRDQTAQIARSWGAQVLSCPEGGVARARQLGLDTARSSWVATTDADSLPAPGWLAAYAQAALLAGGYPEVEAYEDVILGQNLARLGEIGYVPRALVETSARRLDRGVGPFLIQHLRNLTGHTRGLEHHHHHH | failed |
| MQQMNSRLKLTMAVALTAIVLLAGCASTPDWPVSARDNTKPVYSEKLLEQVPFYPQEKYQCGPASLAMMLNAQGLATNPDILKELVYLPGKEGSLQVEMVAGARAHDMLVYRLEPEPEAILAEVEAGNPVLVMQNLRLSWWPQWHFAVVVGYDSTEQVFILNTDTRRHYEMPYKVFYNTWSKAERWAAVILPPDQTPASAEMLPYLQAAHDLETTGHTLAAQRAYQTAITRWPEQPTPLMANANLQYQLGHFQNAVGSFLRVVEKFPGFSEGWNNLAIALNDAGCPARARQASECAAGLAPKRFKPLQDEARSHAADAAACPQIPACPSNAH | failed |
| MALPRPTSPHARGSNRTPAIMRLVLGACVPGLLTLTWLYGPGTLLNLAWASLVALACEAAMLALRKRPPGVFLKDGSALVTALLLAVALPPYAPWWLTLVATFFALVFGKHLYGGLGQNPFNPAMLGYVVALVSFPLEMTRWPSPDSALGLPDSLREFLGLATRPDAWAHATALDVLKTDRSLTVDELFAGNPAFGHLGSAGSEWVNLAFLLGGLFLLWRRLFTWHAPLGMLAGLFAMSLLFWNGSGSDSHGSPLFHLFSGATMLGAFFIVTDPVSGATSNRGRLVFGLGVGVLTYVIRAWGGYPDGVAFAVLLMNLAAPTIDYYTRPRTYGHRKAERGFKAGD | failed |

From a protein production outcome set (Wang et al. 2014)
